Results: US20220177560A1 (Janssen / Centocor, published 2022)

T1: human AβpE11-40 (human, pyroglutamate (pE) at the N-terminus, residue 11 of Aβ)
T1 construct: also called Aβ11pE-40
T1 peptide: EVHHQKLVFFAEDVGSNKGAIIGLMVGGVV

T2: rodent Aβ3pE-40 (rodent, pyroglutamate (pE) at the N-terminus, residue 3 of Aβ)
T2 peptide: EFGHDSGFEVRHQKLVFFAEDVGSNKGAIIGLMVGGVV

T3: AβpE11-42 (human, pyroglutamate (pE) at the N-terminus, residue 11 of Aβ)
T3 construct: also called Aβ11pE-42
T3 peptide: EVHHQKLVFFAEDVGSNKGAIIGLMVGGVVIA


What was measured:
[1] = target: human Aβ 3pE-40 peptide (human, pyroglutamate (pE) at the N-terminus, residue 3 of Aβ); assay: SPR (Biacore T200), antibody captured by anti-mouse antibody on CM5, peptide injected, 1:1 fit; mean
[2] = target: human Aβ1-40 peptide (human); assay: SPR (Biacore T200), antibody captured, peptide injected
Target sequence in this assay (peptide, as listed by the source): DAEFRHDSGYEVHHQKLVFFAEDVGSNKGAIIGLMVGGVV

[3] = target: human Aβ 3pE-28 peptide (human, pyroglutamate (pE) at the N-terminus, residue 3 of Aβ); assay: SPR, antibody captured on anti-human or anti-mouse Ig chip, peptide injected, 1:1 fit; N=1
[4] = target: Aβ3pE-42 (pyroglutamate (pE) at the N-terminus, residue 3 of Aβ); assay: sandwich ELISA, BAMB31_1 coated, HRPO-labeled C-terminal antibody for detection
[5] = target: T1, human AβpE11-40; assay: sandwich ELISA, BAMB31_1 coated, JRF/cAβ40/28-HRPO detection
[6] = target: human Aβ1-40 peptide (human); assay: as above
[7] = target: T2, rodent Aβ3pE-40; assay: as above
[8] = target: human Aβ1-42 (human); assay: sandwich ELISA, BAMB31_1 coated, JRF/cAβ42/26-HRPO detection
[9] = target: T3, AβpE11-42; assay: as above

Sequence of human Aβ 3pE-28 peptide (human, pyroglutamate (pE) at the N-terminus, residue 3 of Aβ) (peptide, as listed by the source): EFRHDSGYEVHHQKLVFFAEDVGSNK
Sequence of human Aβ 3pE-40 peptide (human, pyroglutamate (pE) at the N-terminus, residue 3 of Aβ) (peptide, as listed by the source): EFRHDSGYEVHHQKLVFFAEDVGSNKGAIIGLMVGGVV

| Kd [1] [nM] | koff [1] [s⁻¹] | kon [1] [M⁻¹ s⁻¹] | binding result [2] | Kd [3] [nM] | koff [3] [s⁻¹] | kon [3] [M⁻¹ s⁻¹] | binding result [4] | binding result [5] | binding result [6] | binding result [7] | binding result [8] | binding result [9] | Binder |
| --- | --- | --- | --- | --- | --- | --- | --- | --- | --- | --- | --- | --- | --- |
| 0.053 | 4.94e-05 | 930000 | no binding (tested: 50 nM) | 0.0275 | 7.97e-05 | 2.89e+06 |  |  |  |  |  |  | BAMB31_2a (mIgG2a) (antibody, BAMB31 V regions on murine IgG2a; also called BAMB31 (mIgG2a); mIgG2a parent) heavy: EIQLQQSGPELVKPGTSVKVSCKASGHVFTSYDMYWVKQSHGKSLEWIGYIDSDNGDTSYNQKFKGKATLTVDKSSSTAYMHLNSLTSEDSAVYYCAYYRYAMDYWGQGTSVTVSSAKTTAPSVYPLAPVCGDTTGSSVTLGCLVKGYFPEPVTLTWNSGSLSSGVHTFPAVLQSDLYTLSSSVTVTSSTWPSQSITCNVAHPASSTKVDKKIEPRGPTIKPCPPCKCPAPNLLGGPSVFIFPPKIKDVLMISLSPIVTCVVVDVSEDDPDVQISWFVNNVEVHTAQTQTHREDYNSTLRVVSALPIQHQDWMSGKEFKCKVNNKDLPAPIERTISKPKGSVRAPQVYVLPPPEEEMTKKQVTLTCMVTDFMPEDIYVEWTNNGKTELNYKNTEPVLDSDGSYFMYSKLRVEKKNWVERNSYSCSVVHEGLHNHHTTKSFSRTPGK light: not shown |
|  |  |  |  |  |  |  | binds | no binding (tested: 10 ng/mL) | no binding (tested: 10 ng/mL) | no binding (tested: 10 ng/mL) | no binding (tested: 10 ng/mL) | no binding (tested: 10 ng/mL) | BAMB31_1 (antibody, mouse IgG1, V domains shown, Hybridoma antibody) VH: EIQLQQSGPELVKPGTSVKVSCKASGHVFTSYDMYWVKQSHGKSLEWIGYIDSDNGDTSYNQKFKGKATLTVDKSSSTAYMHLNSLTSEDSAVYYCAYYRYAMDYWGQGTSVTVSS VL: not shown |
